Reference: patent publication US8394380B2, “Compositions and methods for alzheimer's disease” (Primex Clinical Laboratories, Inc., priority 2004, dated 2013)
Where two headings read alike, the source gives them in different places. Positions of bridges follow the written chain, without caps; N, C: chain ends. No end group written: not given here.

How the values were obtained:
[1] = target: T1, Aβ42 (Homo sapiens, UniProt P05067); experiment: ELISA using CDR-based synthetic peptides: biotinylated Aβ42 added to peptide-coated plates; type: binding
Experimental: ELISA analysis was carried out using MaxiSorp microtiter plates coated overnight with synthetic peptide at a concentration of 10 μg/ml in carbonate buffer. After washing, plates were blocked with PBS/2% BSA for 1 h at 37° C. After incubation and a washing step, biotinylated Aβ42 was added to each well. Plates were again incubated for 1 h at 37° C., washed, and reacted with an avidin-peroxidase conjugate diluted 1:500 (Pharmingen, San Jose, Calif., USA) followed by the ABTS single solution (Zymed) as described above.

[2] = target: T1, Aβ42; experiment: Competition ELISA: binding of biotinylated Aβ42 to immobilized cyclic C44; conditions: competitor pre-incubated with biotinylated Aβ42 overnight at 4° C., N44 linear
Experimental: For competition ELISA, cyclic C44 and linear N44 were diluted in PBS/1% BSA and incubated with biotinylated Aβ42 overnight at 4° C. prior to addition to plates coated with cyclic C44.

[3] = system: rat cultured hippocampal neurons; experiment: Neuroprotection assay, Aβ42-induced neurotoxicity, MTT reduction
Experimental: (§2) Primary cultures of hippocampal neurons were prepared from 17-18 day gestational Wistar rat embryos as described previously (Brewer et al., 1993) with some modifications (Massieu et al., 2003). Briefly, after dissection, 10-12 hippocampi were chopped into 300-μm cubes, incubated in a 0.25% trypsin solution, and dispersed by trituration in a 0.08% DNAase and 0.52% soybean trypsin inhibitor containing solution. Cells were suspended in Neurobasal culture medium (GIBCO/Life technologies, Rockville Md., USA) (Brewer et al. 1993) supplemented with B27 (Minus AO GIBCO/life technologies, Rockville, Md., USA), 0.5 mM L-glutamine, 20 μg/ml gentamicin, and 0.2 mM glutamate, and plated at a density of 260-290×10^3/cm^2 in Costar 48-well plates (Cambridge, Mass., USA), precoated with poly-L-lysine (5 μg/ml). Cells were cultured for 6 days in vitro (DIV) at 37° C. in a humidified 5% CO2/95% air atmosphere. Glucose (5 mM) and cytosine arabinoside (10 μM) were added to cultures 4 days after plating.
(§3) The effect of individual treatments of the different peptides on cell viability was also tested. Aβ42 was pre-incubated at 37° C. during 48 h to promote its aggregation and increase neurotoxicity. Cell viability was assessed by the MTT (3-(4,5-dimethylthiazol-2-yl)-2,5-diphenyltetrazolium bromide) dye reduction assay (Mosmann, 1983) as previously described (Garcia and Massieu, 2001). The assay is based on the ability of living mitochondria to convert MTT into insoluble formazan by active dehydrogenases.
(§4) In brief, 72 h after exposure to Aβ42, cell cultures were incubated with MTT (150 μM) during a 1 h period at 37° C. in a 5% CO2/95% O2-containing atmosphere. The medium was aspirated, and the precipitated formazan was solubilized with 0.480 ml isopropanol. After solubilization, isopropanol was transferred to eppendorf tubes, centrifuged (18 000 rpm for 30 s) and the optical density in the supernatant measured at 570 nm in a spectrofluorometer (Beckman DU-640). Cell damage was expressed as percent reduction in mitochondrial activity relative to control cultures. Data were expressed as means±SE (standard error) of 4 independent experiments.

[4] = system: rat cultured hippocampal neurons
Experimental: as §2, §3, §4

[5] = system: primary cultures of hippocampal neurons and mixed cortical neurons; conditions: cited from earlier work
[6] = target: T2, human Aβ42 (wild-type) (Homo sapiens, UniProt P05067); experiment: ELISA binding of phage-displayed scFv / serum to Aβ42-coated wells; conditions: control wild type phage M13
T2 construct: coated overnight with 2 μg/ml of wild-type Aβ42 (BACHEM Bioscience Inc); purchased BACHEM Bioscience Inc
Experimental: One week after the fourth immunization, mouse sera were tested in ELISA for the presence of specific anti-Aβ42 antibodies. Briefly, a 96-well plate (Nunc, Roskilde, Denmark) was coated with 1 μg/ml of Aβ42 in phosphate buffer (pH 7.8) overnight at 4° C. The plate was washed with phosphate buffer containing 0.1% Tween-20 (PBS-Tween) and blocked with PBS containing 2% bovine serum albumin (PBS-BSA). After washing, mouse sera diluted in PBS-BSA 1% was added, and the plate was incubated for 1 h at 37° C. The plate was washed and goat anti-mouse IgG conjugated with HRP (Zymed, San Francisco, Calif., USA) was added. After incubation for 1 h at 37° C., the plate was washed and 2,2′-azino-bis-(3-ethyl-benzothiazoline-6-sulphonic acid (ABTS) single solution (Zymed) was added. The OD reading at 405 was registered using Opsys MR Microplate Reader (DYNEX Technologies, Chantilly, Va., USA).
Fresh 2×YT without glucose but supplemented with ampicillin and kanamycin was added to each well, and plates were incubated overnight at 30° C. with shaking Microtiter plates (Nunc) were coated with Aβ and blocked as described above, supernatants from plates containing phage were added, and after incubation for 1 h at 37° C., plates were washed with PBS-Tween. […] The OD reading at 405 was registered using Opsys MR Microplate Reader (DYNEX Technologies). […]

[7] = target: T3, Flemish (A21G) mutant Aβ42 (Homo sapiens, UniProt P05067, A692G); experiment: ELISA binding of phage-displayed scFv to Flemish mutant Aβ42; conditions: control wild type phage M13
T3 construct: mutant Aβ42 (SynPep Corp., CA, USA); purchased SynPep Corp
Experimental: (§1) Microtiter plates were coated with Aβ42 and blocked as described above, 10^10 of each phage clone were added, and after incubation for 1 h at 37° C., plates were washed with PBS/Tween. An anti-M13 monoclonal HRP (horseradish peroxidase) conjugate (Amersham Pharmacia Biotech, USA) diluted in PBS/1% BSA was then added to the plates followed by an incubation for 1 h 37° C. Plates were washed and the ABTS (2,2′-azino-bis(3-ethylbenzothiazoline-6-sulfonic acid) single solution (Zymed, San Francisco, Calif., USA) was added. The OD 405 nm readings were measured using Opsys MR Microplate Reader (DYNEX Technologies, Inc., Chantilly, Va., USA). An identical ELISA procedure was performed using Flemish (containing an A to G substitution at aa21; i.e. A21G) and Dutch (containing an E to Q substitution at aa22; E22Q) mutant Aβ42 (SynPep Corp., CA, USA).

[8] = target: T4, Dutch (E22Q) mutant Aβ42 (Homo sapiens, UniProt P05067, E693Q); experiment: ELISA binding of phage-displayed scFv to Dutch mutant Aβ42; conditions: control wild type phage M13
T4 construct: mutant Aβ42 (SynPep Corp., CA, USA); purchased SynPep Corp
Experimental: as §1

[9] = target: Aβ1-28 (Homo sapiens, UniProt P05067); experiment: ELISA binding of phage-displayed scFv to Aβ1-28; conditions: control wild type phage M13
[10] = peptide in cyclic form, 40 μM with Aβ42 40 μM, 72 h
[11] = peptide in linear form, 40 μM with Aβ42 40 μM, 72 h
[12] = plates coated with peptide 10 μg/ml

CASVRGWYVRSVFDPAC (cyclic or linear) [C44]
binding to Aβ42 in ELISA ([1]; cyclic peptide, S—S bond reduced with β-mercaptoethanol): abolished completely | binding to Aβ42 in ELISA ([1]; linear form after spontaneous air oxidation, overnight agitation): restored | binding to Aβ42 in ELISA ([1]; peptide in cyclic form): recognized | binding to Aβ42 in ELISA ([1]; peptide in its linear form): weak recognition | inhibition of binding of Aβ42 to immobilized cyclic C44 [2]: inhibited, in a dose dependent manner | effect of peptide alone on basal MTT reducing capacity ([3]; peptide alone, without Aβ42): Neither N44 nor C44 (either the linear or cyclic forms) alone altered basal MTT reducing capacity | neuroprotective effect ([3]; peptide in cyclic form): 53.6% | decrease in mitochondrial activity when co-incubated with Aβ42 [3, 10]: 11.9% | protection against Aβ42 neurotoxicity [3, 10]: showed protection | neuroprotective effect ([3]; peptide in linear form): 69.3% | prevention of Aβ42 neurotoxicity [3, 11]: significantly prevented | reduction in mitochondrial activity when co-incubated with Aβ42 [3, 11]: 7.7%

ASVRGWYVRSVFDPA [N44]
effect of peptide alone on basal MTT reducing capacity [4]: Neither N44 nor C44 (either the linear or cyclic forms) alone altered basal MTT reducing capacity

CADWRYRSVFGPVSVAC (disulfide 1-17 (inferred)) [Scr44, reference compound]
OD405, binding of biotinylated Aβ42 to coated peptide ([1]; peptide in cyclic form, negative control): 0.25±0.03 | binding to Aβ42 in ELISA [1, 12]: did not bind

Aβ42: human amyloid-beta peptide, pre-aggregated, used as neurotoxic insult [reference compound]
decrease in mitochondrial activity ([3]; Aβ42 40 μM alone, 72 h): 24.3%

CC[C@H](C)C(=O)O[C@H]1C[C@@H](C)C=C2C=C[C@H](C)[C@H](CC[C@@H]3C[C@@H](O)CC(=O)O3)[C@H]21 [lovastatin]
intracellular and extracellular levels of Aβ [5]: reduce

IWGCSGKLICTTAVP (not fully specified (bridges); also: cyclic, ring type not given here) [GM15, reference compound]
binding to Aβ42 in ELISA [1, 12]: did not bind

B1: b4.6: phage-displayed human anti-Aβ42 scFv, SEQ ID NO:12, HCDR3 SHYWDS (protein)
scFv: QVQLQESGPGLVKPSETLSLTCSVSGGSVSSGNYYWTWIRQPPGKGLEWIGYIYSSGSTSYNPSLMSRVTISLDMSKNQFSLRLTSVTAADTAVYYCARSHYWDSWSPGTLVTVSSGGGGSGGGGSGGGGSDIVMTQSPSSMSASVGDTVTIACRASRDIRNDLAWYQQKPGKAPKLLIYAASRLQSGVPSRFSGSGSFTDFTLTIQLCLQPDDFATYYCLQDSDYPLTFGGGTKLEIKR
binding to wild type Aβ42 in ELISA [6]: bound | binding to Flemish mutant Aβ42 in ELISA [7]: bound | binding to Dutch mutant Aβ42 in ELISA [8]: not statistically different from control phage M13 | binding to Aβ1-28 in ELISA [9]: not statistically different from control phage M13
